# Paper PMC2695463, “Conformational flexibility and molecular interactions of an archaeal homologue of the Shwachman-Bodian-Diamond syndrome protein”
# T1: mthSBDS (Methanothermobacter thermautotrophicus, UniProt O26781 1-232, R175M)
# T1 sequence: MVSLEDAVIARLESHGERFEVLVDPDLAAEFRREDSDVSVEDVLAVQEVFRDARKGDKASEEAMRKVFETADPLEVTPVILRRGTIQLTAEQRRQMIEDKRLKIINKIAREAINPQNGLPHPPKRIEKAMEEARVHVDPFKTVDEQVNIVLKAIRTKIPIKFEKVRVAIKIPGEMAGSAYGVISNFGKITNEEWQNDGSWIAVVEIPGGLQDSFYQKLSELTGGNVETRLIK
# Biological target: T1, mthSBDS
# Experiment: EMSA; SPR: 10 mM HEPES pH 7.5, 150 mM NaCl, 5 uM EDTA, 0.05% P20, +/- 5 mM MgCl2, temperature not stated; SELEX: 25 mM Tris pH 7.5, 0.5 M NaCl; EMSA: protein 1e-12 to 1e-4 M, buffer not stated
# Settings: protein: recombinant; tags: N-terminal 19-aa extension with His6 (pET28a)
binder,measurement,value
AAAAAAAAAAAAAAAAAAAAAAAAAAAAAA (ssRNA) [30-base poly(A) RNA],binding result,no binding
